Measured values as given in the nanobody polyreactivity screen of Harvey et al. (2022).

Experiment: yeast display, Sf9 membrane polyspecificity reagent, FACS + sequencing; frameworks hold sequencing errors
Summary of the method: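 Genes from sorted yeast were amplified by colony PCR, read by MiSeq 2 × 250 sequencing and filtered on CDR length. These cells carried a synthetic nanobody library in Saccharomyces cerevisiae BJ5465 and were sorted by FACS into low and high (top ~1%) gates on anti-HA and streptavidin fluorescence. Polyreactivity is labelled according to the gate of origin.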

| Sequence | polyreactivity (PSR sort gate) |
| --- | --- |
| QVQLVESGGGLVQAGGSLRLSCDASGSIFRYYGMGWYRQAPGKEREMVAVISYRGGSTYYADSVKGRFTISRDNAKNTVYLQMNSLKPEDTAVYYCIADDPSKLGYEHDYWGQGTQVTVSS | low polyreactivity |
| QVQLVESGGGLVQAGGSLRLSCAASGSNYSGYAMGWARQAPGKERELVAAITKSGGRTYYADSVKGRFTISRDNAKNTVYLQMNSLKPEDTAVYYCAKAYPGTYREYDYWGQGTQVTVSS | high polyreactivity |
| QVQLVESGGGLVQAGGSLRLSCAASGSIFAYYAMGWYRQAPGKEREFVAAISKRGGRTYYADSVKGRFTISRDNAKNTVYLQMNSLKPEDTAVYYCAAPWAYPRSGGDYWGQGTQVTVSS | high polyreactivity |
| QVQLVESGGGLVQAGGSLRLSCAASGFTFLNYDMGWYRQAPGKERELVAAISRSDGITYYADSVKGRFTISRDNAKNSVYLHMNSLKPEDTAVYYCAAERDTPVGVPGYEYYYWGQGTQVTVSS | high polyreactivity |
| QVQLEESGGGLVQAGGSLRLSCAASGSTLIYNAMGWYRPAPGKERELVAAISASGTRTYYADSVKGRFTISRDNAKNTVYLQMNSLKPEDTAVYYCNALRRAPRAEYYYWGQGTQVTVSS | high polyreactivity |
| QVQLVESGGGLVQAGGSLRLSCAASGRIFNYYAMGWYRQAPGKERELVAAISARGGSTYYADSVKGRFTISRDNAKNTVYLQMNSLKPEDNAVYYCAKRLYYSYGKYLLGAYYYWGQGTQVTVSS | high polyreactivity |
| QVQLVESGGGLVQAGGSLRLSSAASGITFYGYARGWYRQPPGKEREFVAAISYSGGSTYYADSVKGRFTISRDNAKNTVYLQMNSLKPEDTAVYYCAARVGRSLYGYWGLGTQVTVSS | high polyreactivity |
| QVQLVESGGGLVQAGGSLRLSCADSGSIFRDNVMGWYRQAPGKEREFVAAISRRGGITYYADSVKGRFTISRDNAKNTVYLQMNSLKPEDTAVYYCATTGGRQYGYWGQGTQVTVSS | high polyreactivity |
| QVQLVESGGGLVQAGGSLRLSCAASGSTFPGYAMGWYRQAPGKERELVAAITAGGGSTYYADSVKGRFTISRDNAKNSVYLLMKSLKPEDTAVYYCAKRYSYYGWRRYDYWGQGTQVTVSS | high polyreactivity |
| QVQLVESGGGLVQAGGSLRLSCAASGLIFTYYAMGWYRQAPGKERELVAGISSGTNTNYADSVKGRFTISRDNAKNTVYLQMNSLKPEDTALYYCATTRGYQFVAYGYWGQGTQVTVSS | low polyreactivity |
| QVQLVESGGGLVQAGGSLRLSCAASGRIFRAYARGWYRQAPGKERELVAAITRGGGTYYADSVKGRFTISRDNAKNSVYLQMNSLKPEDTAVYYCAAGRQRGPGYYFTFDYWGQGTQVTVSS | high polyreactivity |
| QVQLVESGGGLVQAGGSLRLSCAASGSIFITYAMGWYRQAPGKERELVAAIRDSGDRTYYADSVKGRFTISRDNAKNTVYLQMNSLKPEDTAVYYCTARCQEPLKYDYSGQGTQVTVSS | low polyreactivity |
| QVQLVESGGGLVQAGGSLRLSCAASGRTFDEYPMGWYRQAPGKERELVAAISTRGGSTYYADSVKGRFSISRDNAKNTVYLQMNSLKPEDTAVYYCAKAYYPYRYFSVYSDLESWGQGTQVTVSS | high polyreactivity |
| QVQLVESGGGLVQAGGSLRLSCAASGFTFRRNAMGWYIQAPGKERELVAAINVRDGSTYYADSVKGRFTISRDNAKNTVYLQMNSLKPEDTAVYYCAAEFFQGYYWYYYWGQGTQVTVSS | high polyreactivity |
| QVQRVESGGGLVQAGGSLRLRCAASGRIFQGNAMGWYRQAPGKERELVAAITWRGGTTYYADSVKGRFTISRDNAKNTVYLQMNSLKPEDTAVYYCNADWWRTLESDYWGQGTQVTVSS | low polyreactivity |
| QEQLVESGGGLVQAGGSLRLSCAASGFTFWYYAMGWYRQAPGKEREFVAAISLGGGRTYYADSVKGRFTHSRDNAKNTVYLQMNSLKPEDTAVYYCAVDSGTYRSYRYDYCGQGTQVTVSS | high polyreactivity |
| QGQLVESGGGLVQAGGSLRLSSAASGNTFYGYAMGWYRQSPGKERELVASITLSGDSTYYADSVKGRFTISRDNAKNTVYLQMNSLKPEDTAVYYWAGVYTYPLGYYHYTYDYWGQGTQVTVSS | low polyreactivity |
| QVQLVESGGGLVQAGGSLRLSCAASGSTFIPNTMGWYRQEPGKERELVAAISRRGGSTNYADSVKGRFTISRDNAKYTVYLQMNSLKPEDTAVYYCAAVSPRRYRYDYWGQGTQVTVSS | low polyreactivity |
| QVQHVESGGGLVQAGGRLRLSCAASGGIYYYAMGWYRQAPGKERELVAAISSGGGNTNYADSVKGRFTISRDNAKNTVYLQMNSLKPEDTAVYYCATDGFIPTYSYTEIGYDYWGQGTQVTVSS | low polyreactivity |
| QVQLQESGGLVQAGCLRLSCAASGSVSYHEAMGWYRQAPGKERELVATISFGANTNYADSVKGRFTISRDNAKNTVYLQMNSLKPEDTAVYYCAAESLFDDYYGYWGQGTQVTVSS | low polyreactivity |
| QVQLVESGGGLVQAGGRLRLICAASGYTFPLYAMGWYRPAPGKERELVADINIGGASTYYADSVKGRFTISRDNAKNTVELQMNSLKPEDPAVYYCAKEYYDGYFPTFDYDYWGQGTQVTVSS | low polyreactivity |
| QVQLVESGGGLVQAGGSLRLSCAAYGRTFRIYAMGWYRQAPGKERELVATITWRAGSTYYADSVKGRFTISRDNAKYTVYLQMNSLKPEDTAVYYCAADVSAYSGGYWLDYWGQGTQVTVSS | high polyreactivity |

| Sequence | polyreactivity (PSR sort gate) |
| --- | --- |
| QDQLVESRGGLVQAGGSLRLSCAASGSIFIENTMGWYRQAPGKERELVAAISGSVGRTFYADSVKGRFTISRDNAKNTVYLQMNSLKPEDTAVYYCAAVRRTSPGWVYYWGQGTRVTVSS | high polyreactivity |
| QVQLVESGGGLVQAGGSLRLSCAASGSTFTPNAMGWYRQAPGKERELVAAITTRGSSTYYADSVKGRFTISRDNAKNTVYLQMNSLKPEDTAVYYCNAGVTFRRYDYWGQGTQVTVSS | high polyreactivity |
| QVQLVESGGGLVQAGGSLRLSCAASGRIFGVNAMGWYRQAPGKERELVADITGSGGSTYYADSVKGRFTISRDNAKNTVYLQMNCLKAEDTAVYYCATRWIGYTSQWDHFEYDYWGQGTQVTVSS | low polyreactivity |
| QVQLVESGGGLVQAGGSLRLSCAASGRIFVIYGMGWYRQAPGKERELVATISWSGSSTSYADSVKGRFTISRDNAKNTVYLQMNSLKPEDTAVYYCAAYTWYSRHRMNYWGQGTQVTVSS | high polyreactivity |
| QVHLVESGGGLVQAGGSLRLSCAASGSTFSIYTMGWYRQAPGKERELVAVITKSGGSTYYADSLKGRFTISRDNAKNTVYLQMISLKPEDIAVYYCAARRRGARHDYWGQGTQVTVSS | high polyreactivity |
| QVQLVESGGGLVQAGGSLRLSCAASGITIKRYAIGWYRQAPGKEREFVATISQSGTSTYYADSVKGRFTISRDNAMNTVYLQMNSLKPEDTAVYYCAADYIGYWYGYYSWGQGTQVTVSS | low polyreactivity |
| QVQLVESGGGLVQAGGSLRLSCAASGFTFDANAMGWYRQAPGKERELVAAINWSGGSTYYADSVKGRFTISRDNAKYTVYLQMNSLKPEDTAVYYCAAELWGLFDYWGQGTQVTVSS | low polyreactivity |
| QVQLVESGGGLVQAGGSLRLSCAASGRIFYGNAMGWYRQAPGKERELVAAIRRSGGSTYYAESVKGRVTISRDNAKNTVYLQMNSLKPEDTAVYYRNADAFNKISYVWYDYWGQGPQVTVSS | low polyreactivity |
| QVQLVESGGGLVQAGGSLRLSCAASGRTFYGNVMGWYRQPPGKERELVATISFSAGSTYYADSVKGRFTISRDNAKNTVYLQMNSLKPEDTAVYYCNADHTDYATGGGNYWGQGTQVTVSS | low polyreactivity |
| QVQLVESGGGLVQAGGSLRLSCAASGFIFAYYAMGWYRQAPGKERELVAAITSSGGSTYYADSVKGRFTISRDNAKHTVYLQMNSLKPEDTAVYYCNAVPRHYKGYYWGQGTQVTVSS | high polyreactivity |
| QVQLVESGGGLVQAGGSLRLSCAASGLTFFAYPMGWYRQAPGKERELVAVITSSGGSTNYADSVKGRFTISRDTPKNTVYLQMNSLKPEDTAVYYCAAYIRYTLPTSRGFGYWGQGTQVTVSS | high polyreactivity |
| QVQLVESGGGLVQAGGSLRLSCAASGSIFQPYAMGWYRQAPGKERELVAAISSSGGSTTYADSVKGRFTISRDNAKNTVYLQMNSLKPEDTAVYYCAADVEYKVFPGDYWGQGTQVTVSS | low polyreactivity |
| QVQLVESGGGLVHAGGSLGLICAASGFIFYRYAMGWYRQAPGKERELVAAISWSGGTTYYADSVKGRFSISRDNAKNTVYLQMNSLKPEDTAVYYCAATRLRTEYYWGHGTQVTVSS | high polyreactivity |
| QVQLVESGGGLVQAGGSLRLTCAASGSILDSNAMGWYRQAPGKERELVSAITSGGSTYYADSVKGRFTISRDNAKNTVYLQMNSLKPEDTAVYYCAAAYLGYGAVQPSYEGGYWGQGTQVTVSS | low polyreactivity |
| QVQLVESGGGLVQAGGSLRLSCAASGFTFWYYAMGWYRQAPGKERELVASISSIGGSTYYADSVKGRFTISRDNAKNTVYLQMNSLKPEDTAVYYCAADRSSNGLMPGSKNEYWGQGTEVTVSS | high polyreactivity |
| QVQLVESGGGLVQAGGSLRLSCAASGRIFYRYAMGWYRPAPGKERELVATITGRGGSTYYADSVKGRFTISRDNAKNTVYLQMNSLKPEDTAVYYCATTRSVSYPYDGSYYWGQGTQVTVSS | high polyreactivity |
| QFQLVESGGGLVQAGGSLRLSCAASGRIYGYYALGWYRQAPGQERELVATITFGGGSTYYTDSVKGRFTISRDNAKNTVSLQMNSLKPEDTALYYCAADSGYLGIYGDEYSWGHGTQVTVSS | low polyreactivity |
| QVQLVESGGGLVQAGGSLRLSCAASGRTIRSYAMGWYRQAPGKERELVAAITGSGGRTYYADSVKGRFTISRDNAKNTVYLQLNSLKPEDTAVYYCAARLRGSYDYWGQGTQVTVSS | high polyreactivity |
| QVQLVESGGGLVQAGGSLRLSCAASGSTIRRYAMGWSRQAPGKERELVAAITRSGGSTYYADSVKGRFTISRDNAKNTVYLQMNSLKPEDTEVYYCAADTGTGLDWGQGTQVTVSS | high polyreactivity |
| QVQLVESGGGLVQAGGSLRLSCAASGRTFRAYAMGWYRQAPGKEMELVAGITSGGSTNYADSVKGRFTISRDNAKNTVYLQMNSLKPEDTAVYYCAARRGTYRYRYDYWGQGTQVTVSS | high polyreactivity |
| QVQLVESGGGLVQAGGSLRLSCAASGSILSYYAMGWYRQAPGKERELVAAISKSGGRTYYADSVKGRFTISRDNAKNTVYLQMNRLKPEDTAVYYCAAPATYKYDYWGQGTQVTVSS | high polyreactivity |
